Data on 47 substances can be found in patent US20190119318A1.

Experiment [1] has as its target human polyclonal IgG (Gammanorm) (human). Put plainly: SPR; vs reference Zvar2; 0.5 M NaOH.
The target is the same in experiment [2]. Put plainly: SPR; after 100 CIP cycles 0.5 M NaOH.
The target is the same in experiment [3]. The experiment can be described thus: SPR; after 96-100 CIP cycles 0.5 M NaOH. (In general: Surface plasmon resonance follows binding to a sensor surface in real time, without labels.)
For experiment [4] the target is unchanged. The experiment can be described thus: SPR; vs reference Zvar1; 0.5 M NaOH cycles.
For experiment [5] the target is unchanged. The experiment can be described thus: SPR; vs reference Zvar4; 0.5 M NaOH.
For experiment [6] the target is unchanged. Put plainly: SPR; after 200 CIP cycles 0.5 M NaOH.
For experiment [7] the target is unchanged. Put plainly: SPR; after 300 CIP cycles 0.5 M NaOH.
The target is the same in experiment [8]. Put plainly: SPR; vs reference Zvar4; 1 M NaOH.
Experiment [9] has the same target. Put plainly: SPR; after 100 CIP cycles 1 M NaOH.

The substance “Zvar(Q9A,N11E,Q40V,A42K,N43A,L44I)2 with V1, D2, A3, K4, F5, D6, K7 and E8 in linker deleted (designed binder)” gave a capacity relative to ref. 100 cycles in experiment [1] of 1.13. In addition, the remaining capacity 100 cycles in experiment [2] amounted to 62%.

In the case of “Zvar(Q9A,N11E,Q40V,A42K,N43A,L44I,D53R)1 (designed binder)”, in experiment [3], the capacity after 96-100 cycles was 60%. The capacity relative to reference in experiment [4] was 1.3.

Substance “Zvar(Q9A,N11E,A29Y,Q40V,A42K,N43A,L44I)1 (designed binder)” registered a capacity after 96-100 cycles in experiment [3] of 61%. This substance yielded a capacity relative to reference in [4] of 1.27.

In the case of “Zvar(Q9A,N11E,A29I,Q40V,A42K,N43A,L44I)1 (designed binder)”, the capacity after 96-100 cycles in experiment [3] was found to be 58%. In experiment [4], the capacity relative to reference is 1.23.

The substance “Zvar(Q9A,N11E,Q40V,A42K,N43A,L44I)2 with V1, D2 and A3 in linker deleted (designed binder)” showed a capacity relative to ref. 100 cycles in experiment [1] of 1.39. Further, the remaining capacity 100 cycles in [2] stood at 75%.

For “Zvar(Q9A,N11E,A29W,Q40V,A42K,N43A,L44I)1 (designed binder)”, the capacity after 96-100 cycles in experiment [3] was 60%. In experiment [4], this substance came in with a capacity relative to reference of 1.3.

For the substance Zvar(Q9A,N11E,N43A)4 (designed binder), in experiment [5], the capacity relative to ref. 100 cycles came out at 1.21, the capacity relative to ref. 200 cycles is 1.72 and the capacity relative to ref. 300 cycles turned out to be 2.56. This substance returned a remaining capacity 100 cycles in [2] of 81%. Also, the remaining capacity 200 cycles in experiment [6] was 62%. In addition, in experiment [7], the remaining capacity 300 cycles came to 41%.

The substance “Zvar(Q9A,N11E,Q40V,A42K,N43A,L44I)2 with K58, V1 and D2 in linker deleted (designed binder)” had a capacity relative to ref. 100 cycles in [1] of 1.38. In [2], this substance displayed a remaining capacity 100 cycles of 76%.

With “Zvar(Q9A,N11E,Q40V,A42del,N43A,L44I)1 (designed binder)”, the capacity after 96-100 cycles in [3] is 57%. For the same substance, the capacity relative to reference in [4] was found to be 1.24.

In turn, “Zvar(Q9A,N11E,N28A,Q40V,A42K,N43A,L44I)4 (designed binder)” yielded a capacity relative to ref. 100 cycles in [5] of 1.24. Besides, the remaining capacity 100 cycles in [2] was found to be 84%.

In turn, “Zvar(Q9A,N11E,A29S,Q40V,A42K,N43A,L44I)1 (designed binder)” registered a capacity after 96-100 cycles in experiment [3] of 66%. In addition, the capacity relative to reference in experiment [4] is 1.38.

For the substance “Zvar(Q9del,N11E,Q40V,A42K,N43A,L44I)1 (designed binder)”, the capacity after 96-100 cycles in [3] was 60%. This substance also gave a capacity relative to reference in [4] of 1.3.

For the substance “Zvar(Q9A,N11E,A29Q,Q40V,A42K,N43A,L44I)1 (designed binder)”, in experiment [3], the capacity after 96-100 cycles turned out to be 60%. This substance also showed a capacity relative to reference in [4] of 1.28.

Substance “Zvar(Q9A,N11E,A29R,Q40V,A42K,N43A,L44I)1 (designed binder)” gave a capacity after 96-100 cycles in [3] of 58%. The substance also gave a capacity relative to reference in [4] of 1.26.

On to “Zvar(Q9A,N11E,A29V,Q40V,A42K,N43A,L44I)1 (designed binder)”, for which, in experiment [3], the capacity after 96-100 cycles was 62%. In experiment [4], this substance displayed a capacity relative to reference of 1.32.

“parental C domain of Staphylococcus Protein A (from UniProt A0A0H3K686 270-327)” had a reference capacity after 96-100 cycles in experiment [3] of 49%.

“Zvar(Q9A,N11E,A29L,Q40V,A42K,N43A,L44I)1 (designed binder)”: the capacity after 96-100 cycles in experiment [3] amounted to 61%. This substance had a capacity relative to reference in experiment [4] of 1.33.

As to “Zvar(N11K,H18K,S33K,D37E,A42R,N43A,L44I,K50R,L51Y)1 (designed binder)”, the capacity after 96-100 cycles in experiment [3] is 67%. This substance had a capacity relative to reference in [4] of 1.46.

“Zvar(Q9A,N11E,A29T,Q40V,A42K,N43A,L44I)1 (designed binder)” came in with a capacity after 96-100 cycles in experiment [3] of 60%. This substance showed a capacity relative to reference in experiment [4] of 1.28.

As to “Zvar(Q9A,N11E,Q40V,A42K,N43del,L44I)1 (designed binder)”, the capacity after 96-100 cycles in [3] was determined as 55%. This substance also gave a capacity relative to reference in experiment [4] of 1.2.

Substance “Zvar(Q9A,N11E,D37E,Q40V,A42R,N43A,L44I)4 (designed binder)” gave a capacity relative to ref. 100 cycles in [5] of 1.17. Besides, the remaining capacity 100 cycles in experiment [2] worked out at 84%.

In turn, “Zvar(Q9A,N11E,Q40del,A42K,N43A,L44I)1 (designed binder)” displayed a capacity after 96-100 cycles in experiment [3] of 59%. The same substance gave a capacity relative to reference in experiment [4] of 1.28.

With “Zvar(Q9A,N11E,A29F,Q40V,A42K,N43A,L44I)1 (designed binder)”, the capacity after 96-100 cycles in experiment [3] is 62%. Besides, in [4], the capacity relative to reference is 1.35.

In experiment [3], Zvar(N11E,Q32E,K50R)1 (designed binder) returned a capacity after 96-100 cycles of 53%. In addition, in experiment [4], the capacity relative to reference turned out to be 1.04.

“Zvar(Q9A,N11E,A29D,Q40V,A42K,N43A,L44I)1 (designed binder)” showed a capacity after 96-100 cycles in [3] of 56%. In experiment [4], this substance registered a capacity relative to reference of 1.19.

On to “Zvar(N11K,H18K,D37E,A42R,N43A,L44I)1 (designed binder)”, for which, in [3], the capacity after 96-100 cycles amounted to 59%. Moreover, the capacity relative to reference in [4] was found to be 1.31.

In [1], “Zvar(Q9A,N11E,Q40V,A42K,N43A,L44I)2 with A56, P57 and K58 in linker deleted (designed binder)” gave a capacity relative to ref. 100 cycles of 1.26. Moreover, in [2], the remaining capacity 100 cycles turned out to be 68%.

“Zvar(Q9A,N11E,A29N,Q40V,A42K,N43A,L44I)1 (designed binder)”: the capacity after 96-100 cycles in experiment [3] was 61%. Besides, the capacity relative to reference in [4] turned out to be 1.3.

In experiment [3], “Zvar(Q9A,N11E,A29H,Q40V,A42K,N43A,L44I)1 (designed binder)” gave a capacity after 96-100 cycles of 57%. The capacity relative to reference in experiment [4] was 1.21.

As for “Zvar(Q9A,N11K,H18K,S33K,D37E,A42R,N43A,L44I,K50R,L51Y)1 (designed binder)”, in [3], the capacity after 96-100 cycles is 59%. In experiment [4], this substance showed a capacity relative to reference of 1.28.

Take “Zvar(Q9A,N11E,Q40V,A42K,N43E,L44I)4 (designed binder)”: the figures for the capacity relative to ref. 100 cycles in [8] and in experiment [5] were 2 and 1.25, respectively. Further, the remaining capacity 100 cycles was 54% in experiment [9] and 84% in experiment [2]. For the same substance, the capacity relative to ref. 200 cycles in experiment [5] is 1.81. This substance also came in with a capacity relative to ref. 300 cycles in [5] of 3. Also, in [6], the remaining capacity 200 cycles was 65%. The same substance gave a remaining capacity 300 cycles in experiment [7] of 48%.

On to “Zvar(Q9A,N11E,Q40V,A42K,N43A,L44I,D53Y)1 (designed binder)”, for which the capacity after 96-100 cycles in experiment [3] was found to be 59%. For the same substance, the capacity relative to reference in [4] stood at 1.28.

Take “Zvar(Q9A,N11E,D37E,Q40V,A42K,N43A,L44I)4 (designed binder)”: the capacity relative to ref. 100 cycles in experiment [5] was found to be 1.13. Also, in [2], the remaining capacity 100 cycles was 81%.

Regarding “Zvar(Q9A,N11E,A29M,Q40V,A42K,N43A,L44I)1 (designed binder)”, the capacity after 96-100 cycles in [3] was 62%. The substance further gave a capacity relative to reference in experiment [4] of 1.32.

In experiment [3], “parental B domain of Staphylococcus Protein A (from UniProt A0A0H3K686 212-269)” returned a reference capacity after 96-100 cycles of 35%.

In experiment [3], “Zvar(Q9A,N11E,A29K,Q40V,A42K,N43A,L44I)1 (designed binder)” gave a capacity after 96-100 cycles of 59%. Further, the capacity relative to reference in [4] was determined as 1.28.

With “Zvar(Q9A,N11K,H18K,D37E,A42R,N43A,L44I,K50R)1 (designed binder)”, in experiment [3], the capacity after 96-100 cycles turned out to be 67%. Moreover, the capacity relative to reference in [4] is 1.49.

With “Zvar(Q9A,N11E,Q40V,A42K,N43A,L44I,D53K)1 (designed binder)”, the capacity after 96-100 cycles in experiment [3] is 65%. The substance also had a capacity relative to reference in experiment [4] of 1.41.

In [3], “Zvar(Q9A,N11E,Q40V,A42K,N43A,L44I,D53F)1 (designed binder)” returned a capacity after 96-100 cycles of 58%. In experiment [4], the capacity relative to reference worked out at 1.26.

As to “Zvar(Q9A,N11E,Q40V,A42K,N43A,L44I)2 with YEDG inserted in linker between K58 and V1 (designed binder)”, in experiment [1], the capacity relative to ref. 100 cycles worked out at 1.31. The substance further came in with a remaining capacity 100 cycles in experiment [2] of 72%.

With “Zvar(Q9A,N11E,Q40V,A42K,N43A,L44I,D53W)1 (designed binder)”, in experiment [3], the capacity after 96-100 cycles turned out to be 62%. In experiment [4], the capacity relative to reference amounted to 1.35.

Turning to “Zvar(Q9A,N11E,Q40V,A42K,N43A,L44I)2 with K4, F5, D6, K7 and E8 in linker deleted (designed binder)”, in [1], the capacity relative to ref. 100 cycles was determined as 1.3. In [2], this substance gave a remaining capacity 100 cycles of 70%.

Substance “Zvar(Q9A,N11E,N28A,Q40V,A42K,N43A,L44I)1 (designed binder)” had a capacity after 96-100 cycles in [3] of 65%. The capacity relative to reference in [4] is 1.35.

With “Zvar(Q9A,N11E,Q40V,A42K,N43A,L44I)2 with D2, A3 and K4 in linker deleted (designed binder)”, the capacity relative to ref. 100 cycles in [1] came out at 1.27. This substance registered a remaining capacity 100 cycles in [2] of 70%.

In experiment [3], “Zvar(Q9A,N11K,H18K,D37E,A42R,N43A,L44I)1 (designed binder)” registered a capacity after 96-100 cycles of 63%. In experiment [4], the capacity relative to reference turned out to be 1.4.

In [3], “Zvar(Q9A,N11E,A29E,Q40V,A42K,N43A,L44I)1 (designed binder)” showed a capacity after 96-100 cycles of 57%. In experiment [4], this substance yielded a capacity relative to reference of 1.21.

“Zvar(Q9A,N11E,Q40V,A42K,N43A,L44I)2 with P57, K58, V1, D2 and A3 in linker deleted (designed binder)”: in experiment [1], the capacity relative to ref. 100 cycles stood at 1.35. The substance further came in with a remaining capacity 100 cycles in [2] of 74%.
